Measurements published in paper PMC3880865.
Read-outs that look alike come from different tables or passages of the source.

Tests used:
[1] = target: GST-CBL47–435 WT (human) (UniProt P22681); experiment: SPR
[2] = target: GST-CBL47–435 Y368F (human) (UniProt P22681); experiment: SPR
[3] = target: GST-CBL47–435 WT (human) (UniProt P22681); experiment: SPR; remark: listed apart in the source
[4] = target: GST-CBL47–435 M222E (human) (UniProt P22681); experiment: SPR
[5] = target: GST-CBL47–435 Y368F pY371 (human) (UniProt P22681); experiment: SPR
Sequence of GST-CBL47–435 Y368F pY371 (human) (P22681 47-435 Y368F): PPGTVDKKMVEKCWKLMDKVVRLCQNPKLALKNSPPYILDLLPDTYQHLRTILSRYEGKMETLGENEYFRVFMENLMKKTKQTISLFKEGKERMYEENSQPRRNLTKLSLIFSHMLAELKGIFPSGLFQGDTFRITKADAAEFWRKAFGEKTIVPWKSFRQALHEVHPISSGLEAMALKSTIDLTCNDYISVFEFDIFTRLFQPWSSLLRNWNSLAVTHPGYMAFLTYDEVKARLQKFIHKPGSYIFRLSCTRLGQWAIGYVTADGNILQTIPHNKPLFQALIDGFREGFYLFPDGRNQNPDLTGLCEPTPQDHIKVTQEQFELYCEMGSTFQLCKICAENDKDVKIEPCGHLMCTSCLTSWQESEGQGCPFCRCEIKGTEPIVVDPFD

[6] = target: GST-CBL47–435 Y371F (human) (UniProt P22681); experiment: SPR
Sequence of GST-CBL47–435 Y371F (human) (P22681 47-435 Y371F): as the sequence (P22681 47-435 Y368F) above, with F322Y, Y325F counted along it

[7] = target: CBL47–435 pY371 (human) (UniProt P22681)
Sequence of CBL47–435 pY371 (human) (P22681 47-435): as the sequence (P22681 47-435 Y368F) above, with F322Y counted along it

Sequence of UbcH5B (from UniProt P62837 1-147) (enzyme; other documents disagree on this pair) (P62837 whole entry): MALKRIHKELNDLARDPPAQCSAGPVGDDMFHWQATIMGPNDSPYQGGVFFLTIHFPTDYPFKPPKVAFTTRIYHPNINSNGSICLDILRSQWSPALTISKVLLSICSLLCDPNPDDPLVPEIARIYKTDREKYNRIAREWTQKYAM
Sequence of GST-CBL47–435 WT (human) (P22681 47-435): as the sequence (P22681 47-435 Y368F) above, with F322Y counted along it
Sequence of UbcH5B (from UniProt P62837 1-147) (enzyme) (P62837 whole entry): as the sequence (P62837 whole entry) above
Sequence of GST-CBL47–435 Y368F (human) (P22681 47-435 Y368F): as the sequence (P22681 47-435 Y368F) above
Sequence of GST-CBL47–435 M222E (human) (P22681 47-435 M222E): as the sequence (P22681 47-435 Y368F) above, with M176E, F322Y counted along it

Substance	Kd [1] [µM]	Kd [2] [µM]	Kd [3] [µM]	Kd [4] [µM]	Kd [5] [µM]	Kd [6] [µM]	Km (UbcH5B~Ub) of CBL47–435 pY371 autoubiquitination, Michaelis-Menten, 22°C [7] [μM]
UbcH5B (from UniProt P62837 1-147) (enzyme; other documents disagree on this pair)	244	138	311	70	28	250	
UbcH5B (from UniProt P62837 1-147) (enzyme)							6.5
ZAP-70 peptide			17		11		
